According to the supplement of paper PMC7877785:
± gives the uncertainty stated by the source.

Test: self-splicing fitness, log relative to wild type (ln ratio); higher = more splicing; Tetrahymena group I intron in knt gene, E. coli kanamycin selection, DiMSum; sequences stand for … in CUCUCU…GGAGGGAAAAGUUAUCAGGCAUGCACCUGGUAGCUAGUCUUUAAACCAAUAGAUUGCAUCGGUUUAAAAGGCAAGACCGUCAAAUUGCGGGAAAGGGGUCAACAGCCGUUCAGUACCAAGUCUCAGGGGAAACUUUGAGAUGGCCUUGCAAAGGGUAUGGUAAUAAGCUGACGGACAUGGUCCUAACCACGCAGCCAAGUCCUAAGUCAACAGAUCUUCUGUUGAUAUGGAUGCAGUUCACAGACUAAAUGUCGGUCGGGGAAGAUGUAUUCUUCUCAUAAGAUAUAGUCGGACCUCUCCUUAAUGGGAGCUAGCGGAUGAAGUGAUGCAACACUGGAGCCGCUGGGAACUAAUUUGUAUGCGAAAGUAUAUUGAUUAGUUUUGGAGUACUCGUGGUCG
In short: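 Pooled colonies went to amplicon sequencing on an Illumina HiSeq 2500 after six replicate transformations. The plates were LB agar with 100 μg/mL carbenicillin, 50 μM IPTG and 0.2% rhamnose, with or without 25 μg/mL kanamycin, incubated overnight at 37°C or 30°C. The E. coli BL21(DE3) library had all eight P1ex-region intron nucleotides randomised, the intron placed in the knt kanamycin-resistance gene on pET-22b(+). DiMSum fitness is the error-weighted combination of replicate fold changes, kanamycin against none, normalised to wild type.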

Row | Sequence | self-splicing fitness (ln) (30 °C) | self-splicing fitness (ln) (37 °C)
1 | UCUCAGCAAUAUUACGAACA | -1.41 ± 0.12 | -1.01 ± 0.13
2 | AUAUAGCAAUAUUACGGCCU | -0.457 ± 0.22 | -1.58 ± 0.39
3 | GAUAAGCAAUAUUACGACUG | -1.18 ± 0.2 | 0.14 ± 0.25
4 | ACCGAGCAAUAUUACGAUUA | -2.31 ± 0.17 | -3.01 ± 0.25
5 | AUCCAGCAAUAUUACGAAUA | -1.44 ± 0.13 | -0.957 ± 0.13
6 | UUAGAGCAAUAUUACGACAU | -1.894 ± 0.018 | -1.19 ± 0.036
7 | AUACAGCAAUAUUACGUAGU | -1.34 ± 0.067 | -0.206 ± 0.083
8 | CGAGAGCAAUAUUACGUGGG | -2.27 ± 0.35 | -1.42 ± 0.28
9 | AGUAAGCAAUAUUACGCGGC | – | -3.37 ± 0.42
10 | CCCAAGCAAUAUUACGGAUC | -4.28 ± 0.23 | -2.45 ± 0.15
11 | GACCAGCAAUAUUACGUUAC | -1.65 ± 0.052 | -0.38 ± 0.067
12 | GGACAGCAAUAUUACGCUUU | -1.39 ± 0.065 | -0.538 ± 0.087
13 | CUCGAGCAAUAUUACGCCAC | -2.89 ± 0.43 | -1.24 ± 0.43
14 | GUCAAGCAAUAUUACGACAU | -1.673 ± 0.012 | -0.579 ± 0.032
15 | GAAAAGCAAUAUUACGCAGU | -3.38 ± 0.18 | -1.69 ± 0.15
16 | GGGAAGCAAUAUUACGGGGG | -4.18 ± 0.35 | -3.18 ± 0.32
17 | AUUAAGCAAUAUUACGCUUU | -2.38 ± 0.24 | -1.24 ± 0.32
18 | ACACAGCAAUAUUACGCCAG | -2.45 ± 0.1 | -1.13 ± 0.13
19 | UUAAAGCAAUAUUACGCCGU | -0.966 ± 0.18 | -0.394 ± 0.25
20 | CCUGAGCAAUAUUACGGAUA | -3.44 ± 0.32 | -1.92 ± 0.23
21 | UUACAGCAAUAUUACGAUAC | -3.01 ± 0.32 | -3.46 ± 0.39
22 | CUUUAGCAAUAUUACGGUUU | -2.79 ± 0.21 | -2.71 ± 0.24
23 | UUCUAGCAAUAUUACGGUGA | -0.462 ± 0.086 | -0.28 ± 0.11
24 | CUUGAGCAAUAUUACGAUAG | -2.67 ± 0.18 | -0.896 ± 0.2

Row | Sequence | self-splicing fitness (ln) (30 °C) | self-splicing fitness (ln) (37 °C)
25 | GACUAGCAAUAUUACGCCAC | – | -1.76 ± 0.41
26 | CUAGAGCAAUAUUACGCUCC | -2.45 ± 0.42 | –
27 | GUAAAGCAAUAUUACGACGG | -3.85 ± 0.29 | -2.28 ± 0.23
28 | UUUGAGCAAUAUUACGGCGA | -1.09 ± 0.18 | -0.162 ± 0.19
29 | GGUUAGCAAUAUUACGGCGG | -2.05 ± 0.15 | -1.68 ± 0.16
30 | UUCCAGCAAUAUUACGCAUC | -3.6 ± 0.23 | -2.2 ± 0.17
31 | UUCUAGCAAUAUUACGACAG | -1.13 ± 0.22 | -1.59 ± 0.32
32 | AGCUAGCAAUAUUACGUUAA | -2.49 ± 0.21 | -1.36 ± 0.14
33 | GUACAGCAAUAUUACGACAC | -0.333 ± 0.099 | 0.291 ± 0.11
34 | CACGAGCAAUAUUACGUUAC | -4.19 ± 0.36 | -1.25 ± 0.23
35 | UACCAGCAAUAUUACGGGCC | -2.22 ± 0.1 | -1.2 ± 0.11
36 | CGCUAGCAAUAUUACGCCUG | 0.202 ± 0.13 | 0.152 ± 0.16
37 | AUCAAGCAAUAUUACGUAGU | -2.22 ± 0.08 | -1.14 ± 0.097
38 | UCAGAGCAAUAUUACGUAUA | -3.46 ± 0.27 | -2.44 ± 0.23
39 | UUAGAGCAAUAUUACGCAAA | -1.89 ± 0.14 | -0.682 ± 0.16
40 | GCCAAGCAAUAUUACGGCCC | -2.13 ± 0.2 | -1.57 ± 0.22
41 | AGGCAGCAAUAUUACGCGUG | -2.48 ± 0.13 | -0.717 ± 0.11
42 | CUCCAGCAAUAUUACGGCGC | -3.37 ± 0.18 | -2.81 ± 0.27
43 | CACCAGCAAUAUUACGUCCG | -0.0929 ± 0.051 | 0.19 ± 0.071
44 | CCCUAGCAAUAUUACGAAGA | -2.34 ± 0.21 | -2.67 ± 0.26
45 | CUACAGCAAUAUUACGCAUC | -3.65 ± 0.27 | -1.5 ± 0.16
46 | GAGGAGCAAUAUUACGAUCG | -2.15 ± 0.22 | -1.2 ± 0.32
47 | UUUGAGCAAUAUUACGGGAU | -2.91 ± 0.2 | -3.24 ± 0.32
48 | GCGCAGCAAUAUUACGACUA | -0.643 ± 0.12 | 0.154 ± 0.11
